The text below walks through data of patent US12325747 (University of Texas, dated 2025).

Where two headings read alike, the source gives them in different places.

Test [1] has as its target T1, PD-L1 on CHO-PD-L1 cells (human, UniProt Q9NZQ7 19-290). Briefly: cell-based or functional assay.
The target in test [2] is T2, mouse PD-L1 protein (mouse, UniProt Q9EP73 19-238, limits assumed).
T2 construct: also called murine PD-L1
Description: lower panel, MFI against Ab (nM): flow cytometry on CHO cells with murine PD-L1, anti-human IgG1-PE secondary. The panel has no title; murine PD-L1 follows from paragraph 175 (only ADI-20227 binds murine PD-L1 well). The procedure: (§1) Antibody Activity. Varying concentrations of PD-L1 antibodies, with human IgG1 backbones, were added to CHO cells expressing either human or murine PD-L1 (CHO-PD-L1 cells). Binding was detected by addition of anti-human IgG1 secondary antibody conjugated to phycoerythrin. FACS analysis was performed, detecting phycoerythrin to determine fluorescence activity at a variety of antibody concentrations. EC50 was calculated using GraphPad Prism® software.

Test [3] addresses T3, Human PD-L1-HIS (human, UniProt Q9NZQ7 19-238).
T3 construct: also called HIS-tagged protein (human PD-L1)
Briefly: Octet tandem competition on HIS-tagged human PD-L1; competitor Avelumab. The procedure: (§2) Epitope binning of PD-L1 antibodies. Binding specificity of a variety of PD-L1 antibodies were compared using a binding competition assay conducted using the ForteBio Octet® platform. Target HIS-tagged protein (human PD-L1) is loaded onto pre-charged Nickel NTA Biosensors at 1 μg/mL. The first Ab1 is saturated on the target-loaded biosensor at 100 nM, and a reference (bufer only) well is included to determine maximal Ab2 binding signal. The second Ab2 is screened for binding signal also at 100 nM, and Ab1 is included to determine background self-blocking signal. Data Analysis HT 9.0 software is used to generate a matrix of raw signal response of Ab2 binding that is then transformed to be expressed as a percentage of the unblocked Ab2 binding signal. Less than 15% response is considered competitive blocking.

In test [4] the target is T3, Human PD-L1-HIS. Briefly: Octet tandem competition on HIS-tagged human PD-L1; competitor Atezolizumab. The procedure:
as §2

Test [5] addresses T4, Human PD-L1-Fc (human, UniProt Q9NZQ7 19-238).
T4 construct: also called Fc fusion antigen; not shown: Fc part, not described
Description: ForteBio Octet BLI (row ForteBio-KD); antigen and unit inferred, taken from Table 5.

Test [6] deals with T4, Human PD-L1-Fc. Briefly: ForteBio Octet BLI; IgG on AHQ sensors, 100 nM antigen; avid. The procedure:
(§3) ForteBio K_D measurements—ForteBio affinity measurements were performed on an Octet RED384 generally as previously described (see, e.g., Estep et al., Mabs 5(2), 270-278 (2013)). Briefly, ForteBio affinity measurements were performed by loading IgGs on-line onto AHQ sensors. Sensors were equilibrated off-line in assay buffer for 30 min and then monitored on-line for 60 seconds for baseline establishment. Sensors with loaded IgGs were exposed to 100 nM antigen for 3 minutes, and afterwards were transferred to assay buffer for 3 min for off-rate measurement. For monovalent affinity assessment Fabs were used instead of IgGs. For this assessment the unbiotinylated Fc fusion antigen was loaded on-line onto the AHQ sensors. Sensors were equilibrated off-line in assay buffer for 30 min and then monitored on-line for 60 seconds for baseline establishment. Sensors with loaded antigen were exposed to 100 nM Fab for 3 minutes, and afterwards they were transferred to assay buffer for 3 min for off-rate measurement. All kinetics were analyzed using the 1:1 binding model.

A further test concerns the target Cyno PD-L1-Fc (cyno, UniProt G7PSE7 19-238). The description is as above. The procedure:
as §3

In another test the target is T5, Mouse PD-L1-Fc (mouse, UniProt Q9EP73 19-238, limits assumed).
T5 construct: not shown: Fc part, not described
T5 sequence (Q9EP73 19-238 limits assumed): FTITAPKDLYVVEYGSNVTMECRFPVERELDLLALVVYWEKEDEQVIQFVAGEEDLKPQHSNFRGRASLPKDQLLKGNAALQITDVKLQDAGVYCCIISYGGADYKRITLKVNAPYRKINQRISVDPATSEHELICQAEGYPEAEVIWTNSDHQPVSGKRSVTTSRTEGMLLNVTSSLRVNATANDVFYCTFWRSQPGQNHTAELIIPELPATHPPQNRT
The description is as above. The procedure:
as §3

The target in test [7] is T1, PD-L1 on CHO-PD-L1 cells. Description: upper panel, MFI against Ab (nM): flow cytometry on CHO cells with PD-L1, anti-human IgG1-PE secondary. The panel has no title; human PD-L1 follows from paragraph 175 (all three bind human PD-L1). The procedure:
as §1

The target of test [8] is T3, Human PD-L1-HIS. Description: Octet tandem competition on HIS-tagged human PD-L1; competitor Durvalumab. The procedure:
as §2

Test [9] deals with T4, Human PD-L1-Fc. Briefly: ForteBio Octet BLI; Fc fusion antigen on AHQ sensors, 100 nM Fab; monovalent. The procedure: as §3
For test [10], the target named is T1, PD-L1 on CHO-PD-L1 cells. Briefly: cell-based or functional assay. This is another data set of the same source.
Test [11] concerns the target T3, Human PD-L1-HIS. Briefly: ForteBio Octet BLI; IgG on AHQ sensors, 100 nM antigen; column head says Avid. The procedure:
as §3

The target in test [12] is T1, PD-L1 on CHO-PD-L1 cells. Briefly: cell-based or functional assay. The source holds these as a separate data set.
Test [13] addresses T2, mouse PD-L1 protein. Briefly: lower panel, MFI against Ab (nM): flow cytometry on CHO cells with murine PD-L1. The panel has no title; murine PD-L1 follows from paragraph 175. The procedure: as §1

Sequence of Cyno PD-L1-Fc (G7PSE7 entry or part of it limits assumed): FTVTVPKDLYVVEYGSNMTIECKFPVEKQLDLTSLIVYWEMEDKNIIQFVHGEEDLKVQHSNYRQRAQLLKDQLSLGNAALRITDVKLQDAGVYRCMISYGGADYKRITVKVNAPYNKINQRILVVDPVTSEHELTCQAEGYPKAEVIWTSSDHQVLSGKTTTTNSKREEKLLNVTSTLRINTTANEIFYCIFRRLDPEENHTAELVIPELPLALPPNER
T1 sequence (Q9NZQ7 19-290 limits assumed): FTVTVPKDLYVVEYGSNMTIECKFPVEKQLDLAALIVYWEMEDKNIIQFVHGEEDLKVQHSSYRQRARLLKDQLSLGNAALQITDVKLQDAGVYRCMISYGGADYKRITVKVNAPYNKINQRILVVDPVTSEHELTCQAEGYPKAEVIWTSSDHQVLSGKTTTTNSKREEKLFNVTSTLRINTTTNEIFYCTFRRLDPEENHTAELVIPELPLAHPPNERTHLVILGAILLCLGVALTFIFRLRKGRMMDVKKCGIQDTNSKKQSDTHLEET
T4 sequence (Q9NZQ7 19-238 limits assumed): as the sequence (G7PSE7 entry or part of it limits assumed) above, with T33A, S34A, N62S, Q68R, R82Q, L173F, A185T, I192T, L215H counted along it
T3 sequence (Q9NZQ7 19-238 limits assumed): as the sequence (G7PSE7 entry or part of it limits assumed) above, with T33A, S34A, N62S, Q68R, R82Q, L173F, A185T, I192T, L215H counted along it
T2 sequence (Q9EP73 19-238 limits assumed): as the sequence (Q9EP73 19-238 limits assumed) above

B1: ADI-20227 (antibody, human IgG1, V domains shown)
VH: QVQLQESGPGLVKPSQTLSLTCTVSGGSIVSGGLYWSWIRQHPGKGLEWIGYIYYAGVTYYNPSLKSRVTISVDTSKNQFSLKLSSVTAADTAVYYCARGPRMGLAGMDVWGQGTTVTVSS
VL: DIQMTQSPSSVSASVGDRVTITCRASQGISSWLAWYQQKPGKAPKLLIYAASSLQSGVPSRFSGSGSGTDFTLTISSLQPEDFATYYCQQANSFPITFGGGTKVEIK
notes: Tested as IgG; also called PD-L1-C1-2; clone family cLC
Take B1: the “EC50 for restoration of PD-L1:PD-1 repressed Jurkat T cell activity (row label IC50)” value with PD-L1 on CHO-PD-L1 cells [1] was 0.295 nM. The EC50 stood at 1.13 nM with mouse PD-L1 protein [2] and 1.12 nM in the test with PD-L1 on CHO-PD-L1 cells [7]. For the same molecule, the “percentage of the unblocked Ab2 binding signal” value (“percentage” below) in the test with Human PD-L1-HIS [3] is 0.37%; with Human PD-L1-HIS [4], -0.52%; with Human PD-L1-HIS [8], 0.65%. Further, the Kd was 0.179 nM in the test with Human PD-L1-Fc [5], 0.179 nM with Human PD-L1-Fc [6], 0.192 nM in the test with Cyno PD-L1-Fc and 0.101 nM with Mouse PD-L1-Fc.

B2: ADI-20227 Fab (Fab, V domains shown)
VH: B1 VH
VL: B1 VL
Molecule B2 returned a Kd with Human PD-L1-Fc [9] of 0.915 nM.

B3: ADI-20803 (antibody, human IgG1, V domains shown)
VH: QVQLVQSGAEVKKPGSSVKVSCKASGGTFRLYAISWVRQAPGQGLEWMGSIIPGFGSANYAQKFQGRVTITADESTSTAYMELSSLRSEDTAVYYCARDGGGGTSAYSFDPWGQGTLVTVSS
VL: EIVLTQSPATLSLSPGERATLSCRASQSVSSYLAWYQQKPGQAPRLLIYDASNRATGIPARFSGSGSGTDFTLTISSLEPEDFAVYYCQQSINFPYTFGGGTKVEIK
notes: Tested as IgG; also called PDL1-1-12; PLD1-1-12
Consider B3, for which, in the test with PD-L1 on CHO-PD-L1 cells [10], the “EC50 (read off the curve)” value is around 3 nM. The “percentage” value turned out to be 3.14% in the test with Human PD-L1-HIS [3], 1.86% with Human PD-L1-HIS [4] and 2.38% with Human PD-L1-HIS [8]. The Kd with Human PD-L1-Fc [6] was found to be 0.188 nM; with Cyno PD-L1-Fc, 0.196 nM; with Mouse PD-L1-Fc, 5.65 nM; with Human PD-L1-HIS [11], 0.0092 nM. The molecule further displayed an EC50 in the test with PD-L1 on CHO-PD-L1 cells [7] of 0.7 nM.

B4: ADI-20803 Fab (Fab, V domains shown)
VH: B3 VH
VL: B3 VL
notes: also called Fab of ADI-20803
B4 gave a Kd in the test with Human PD-L1-Fc [9] of 0.226 nM.

B5: ADI-16403 (antibody, human IgG1, V domains shown)
VH: EVQLVESGGGLVQPGGSLRLSCAASGFTFSSYWMSWVRQAPGKGLEWVANIKSDGSEKYYVDSVKGRFTISRDNAKNSLYLQMNSLRAEDTAVYYCARVTYWADYMDVWGKGTTVTVSS
VL: DIQMTQSPSTLSASVGDRVTITCRASQSISSWLAWYQQKPGKAPKLLIYKASSLESGVPSRFSGSGSGTEFTLTISSLQPDDFATYYCQQSGSLPPTFGGGTKVEIK
notes: Tested as IgG; also called PD-L1-31; clone family 35
For the molecule B5, the “percentage” value is 2.39% with Human PD-L1-HIS [3], 0.75% with Human PD-L1-HIS [4] and 1.03% with Human PD-L1-HIS [8]. In addition, the concentration giving a half-maximal response (EC50 (read off the curve)) in the test with PD-L1 on CHO-PD-L1 cells [12] is around 2 nM. Further, the Kd was 0.317 nM with Human PD-L1-Fc [6], 0.792 nM with Cyno PD-L1-Fc and 0.328 nM with Human PD-L1-HIS [11]. For the same molecule, in the test with Mouse PD-L1-Fc, the binding result was “no binding (tested: 100 nM)”.

B6: ADI-16403 Fab (Fab, V domains shown)
VH: B5 VH
VL: B5 VL
notes: also called Fab of ADI-16403
Consider B6, for which the Kd with Human PD-L1-Fc [9] came to 0.935 nM.

B7: ADI-20799 (antibody, human IgG1, V domains shown)
VH: QVQLVQSGAEVKKPGASVKVSCKASGYTFTGVYMHWVRQAPGQGLEWMGGIFPIGGTANYAQKFQGRVTITADESTSTAYMELSSLRSEDTAVYYCARDRTSGALYWGQGTLVTVSS
VL: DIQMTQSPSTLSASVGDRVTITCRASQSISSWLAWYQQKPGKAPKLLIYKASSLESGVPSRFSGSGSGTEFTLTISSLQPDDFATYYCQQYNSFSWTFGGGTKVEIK
As to B7, in the test with PD-L1 on CHO-PD-L1 cells [12], the concentration giving a half-maximal response (EC50 (read off the curve)) is around 0.5 nM. For the same molecule, the binding result with mouse PD-L1 protein [13] is recorded as “no binding (tested: about 700 nM)”. This molecule came in with an EC50 with PD-L1 on CHO-PD-L1 cells [7] of 1.31 nM.
